Test results from US20250051458A1, “Methods for Treating Neurodegeneration Targeting IGF1/IGF1R” (The Schepens Eye Research Institute, Inc., priority 2021, published 2025).

Tests used:
[1] = tested on: DBA/2J mice; assay: DBA/2J chronic glaucoma mouse model, monthly intravitreal administration; type: in vivo; conditions: 10 m-old DBA/2J mice
Description: (§1) Adult (10-12 weeks old) male and female C57BL/6J (B6) (The Jackson Laboratory, 000664), Cx3cr1^GFP (The Jackson Laboratory, 005582), DBA/2J mice (The Jackson Laboratory, 000671) Igf1r^(lax) inducible knockout mice (The Jackson Laboratory, 012251) as well as Cx3cr1^tm2.1(cre/ERT2) mice were obtained from the Jackson Laboratory. Igf1r^(lax) mice were crossed with Cx3cr1^tm2.1(cre/ERT2) mice to generated Igf-1r specific knock out on microglia after 3 consecutive days injection of 100 mg/kg tamoxifen to mice. IGFBPL1 deficiency mice at a C57BL/6J genetic background (Knockout Mouse Project Repository, University of California at Davis) were used in following experiments. Mice of both genders were randomized into control and experimental groups. All experimental procedures and use of animals were approved and monitored by the Institute's Animal Care Committee and conform to the standards of the National Institute of Health and the Association for Research in Vision and Ophthalmology.
Adult mice were anesthetized by i.p. injection of ketamine (120 mg/kg)/xylazine (20 mg/kg) mixture using 25 G needle. […] Mice will be placed on a warm pad and monitored every 15 minutes until awake and fully sternal.
The adult mice were dark adapted in a dark adaptation chamber overnight before conducting ERG. […] The pSTR was measured from the baseline to the peak of the positive deflection. […]

[2] = tested on: Igf-1r conditional knock out on microglia mice; assay: Microbead-induced glaucoma in mice with Igf-1r specific knock out on microglia; type: in vivo, mouse
Description: as §1
Elevated IOP was induced unilaterally in adult mice (10-12 weeks old) as described previously^21. […] Antibiotic ointment will be applied topically on the cornea after the injection, and then leave the operated mice to recover on a warm pad and monitored every 15 minutes until awake and fully sternal. […]

B1: IGFBPL1: insulin-like growth factor binding protein like protein 1; recombinant protein (R&D system, 4130-BL) (protein)
chain: LGLRDAGRRHPECSPCQQDRCPAPSPCPAPWISARDECGCCARCLGAEGASCGGPVGSRCGPGLVCASRASGTAPEGTGLCVCAQRGAVCGSDGRSYSSICALRLRARHAPRAHHGHLHKARDGPCEFAPVVLMPPRDIHNVTGTQVFLSCEVKAVPTPVITWKKVKHSPEGTEGLEELPGDHVNIAVQVRGGPSDHETTSWILINPLRKEDEGVYHCHAANAIGEAQSHGTVTVLDLNRYKSLYSSVPGDLL
With B1 as the molecule, how does the “Survived axon in optic nerve” value ([1]; versus vehicle-treated group) read?
Its value is “significantly preserved”.

And the “RGC density and pSTR amplitude” value ([1]; after four monthly doses)?
The value was “effectively protect RGCs and functions”.

What about the “pSTR amplitude and RGCs (neuroprotective effect)” value ([2]; IGFBPL1 at day 3, 10 and 17 post microbeads-induced glaucoma, IGF-1R knocked out on microglia) of the same molecule?
Its value is “neuroprotective effects diminished”.

And the “Contrast sensitivity (CS) and visual acuity (VA)” value ([2]; Igf-1r−/− mice with MB induced glaucoma)?
Its value is “very limited protective capacity”.
